In publication PMC9227038, “Characterization of Four Medically Important Toxins from Centruroides huichol Scorpion Venom and Its Neutralization by a Single Recombinant Antibody Fragment” (Toxins, 2022):
Residue numbers refer to the chain shown, from its start.

B1: scFv 10FG2 (scFv, V domains shown)
VH: QVNLRESGGGLVQPGGSLRLSCAASGFSFGSYGMHWVRQAPGKGLEWVAVISYGGGSKYYADSVKGRFTISRDNSKNTLYLQMNSLRAEDTAVYYCAKDARDCLLCSDWTFDLWGRGTLVTVSS
VL: NFMLTQPHSASGTPGQRVTISCSGSSSNIGSNTVNWYRHLPGSAPELLIGSHNQRPSGVPDRFSGSKSGTSASLAISGLQSEDEADYYCAAWDDSTLGYVFGTGTKLTVL
notes: source: E. coli TG1 (pSyn1), purified (Ni2+-NTA, Superdex 75 SEC)
B2: scFv HV (scFv, V domains shown)
VH: B1 VH with F29Y, K65Q, L105G
VL: B1 VL with G15E
notes: also called HV variant
B3: scFv B15a (scFv, V domains shown)
VH: B1 VH with K65Q, L105Q
VL: B1 VL
notes: also called B15a variant; source: E. coli TG1 (pSyn1), purified (Ni2+-NTA, Superdex 75 SEC)
B4: scFv 9a (scFv, V domains shown)
VH: B1 VH with L105Q
VL: B1 VL
notes: also called variant 9a; clone 9a
B5: scFv LR (scFv, V domains shown)
VH: EVQLVESGGGLVQPGGSLRLSCTGSGFTFDNYAMHWLRQVPGEGLEWVSGISRSSGDIDYADSVKGRFTISRDDAKKTLSLQMNSLRAEDTAVYYCARGGFGSFDTWGQGTMVTVSS
VL: EIVLTQSPATLSVSPGERATLSCRASQSVRSYLAWYQQKPGQAPRLLFSDASNRATGIPARFTGSGSGTDFTLTISSLEPEDFAIYYCQQYRYSPRTFGQGTKVEIK

What was measured:
Assay in all cases: SPR
Details in all cases: both partners purified
Chui3 toxin [1] = target: T1, Chui3 toxin (Centruroides huichol, UniProt C0HM16)
T1 construct: also called Chui3/Cn3; FII.9-3

Chui2 toxin [2] = target: T2, Chui2 toxin (Centruroides huichol, UniProt C0HM15)
T2 construct: also called FII.9-2

Chui4 toxin [3] = target: T3, Chui4 toxin (Centruroides huichol, UniProt C0HM17)
T3 construct: also called FII.10-1

Chui5 toxin [4] = target: T4, Chui5 toxin (Centruroides huichol, UniProt C0HM18)
T4 construct: also called FII.12-1

Chui5 toxin [5] = target: T4, Chui5 toxin; remark: listed apart in the source
Chui5 toxin [6] = target: T4, Chui5 toxin; remark: listed apart in the source
Chui5 toxin [7] = target: T4, Chui5 toxin; remark: listed apart in the source
Chui3 toxin [8] = target: T1, Chui3 toxin; remark: listed apart in the source
Chui2 toxin [9] = target: T2, Chui2 toxin; remark: listed apart in the source
Chui4 toxin [10] = target: T3, Chui4 toxin; remark: listed apart in the source

T3 sequence (C0HM17 whole entry): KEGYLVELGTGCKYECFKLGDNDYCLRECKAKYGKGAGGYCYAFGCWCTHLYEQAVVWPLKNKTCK
T2 sequence (C0HM15 whole entry): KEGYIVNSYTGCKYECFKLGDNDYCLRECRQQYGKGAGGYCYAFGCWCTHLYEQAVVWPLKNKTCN
T1 sequence (C0HM16 whole entry): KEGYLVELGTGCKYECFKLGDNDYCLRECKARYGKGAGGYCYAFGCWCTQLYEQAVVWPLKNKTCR
T4 sequence (C0HM18 whole entry): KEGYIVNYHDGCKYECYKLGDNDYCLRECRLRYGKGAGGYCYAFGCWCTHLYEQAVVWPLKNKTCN

Binder | Kd (Chui3 toxin [1]) | TR (residence time) (Chui3 toxin [1]) | koff (Chui3 toxin [1]) | kon (Chui3 toxin [1]) | Kd (Chui2 toxin [2]) | TR (residence time) (Chui2 toxin [2]) | koff (Chui2 toxin [2]) | kon (Chui2 toxin [2]) | Kd (Chui4 toxin [3]) | TR (residence time) (Chui4 toxin [3]) | koff (Chui4 toxin [3]) | kon (Chui4 toxin [3]) | dH (Chui5 toxin [4]) | Kd (Chui5 toxin [6]) | koff (Chui5 toxin [6]) | kon (Chui5 toxin [6]) | further results
B1 | 1.8 nM | 53.1 min | 0.00031 s⁻¹ | 180000 M⁻¹ s⁻¹ | 1.1 nM | 60.4 min | 0.00028 s⁻¹ | 280000 M⁻¹ s⁻¹ | 0.3 nM | 242 min | 7e-05 s⁻¹ | 210000 M⁻¹ s⁻¹ |  |  |  |  | 
B2 | 3.8 nM | 48.8 min | 0.00034 s⁻¹ | 90000 M⁻¹ s⁻¹ | 3.1 nM | 34.2 min | 0.00049 s⁻¹ | 160000 M⁻¹ s⁻¹ | 0.9 nM | 105 min | 0.00016 s⁻¹ | 180000 M⁻¹ s⁻¹ | -1.6 kcal/mol |  |  |  | Kd (Chui5 toxin [5]): 6.9 nM; TR (residence time) (Chui5 toxin [5]): 15.5 min; koff (Chui5 toxin [5]): 0.00108 s⁻¹; kon (Chui5 toxin [5]): 160000 M⁻¹ s⁻¹
B3 |  |  |  |  |  |  |  |  |  |  |  |  | -2.6 kcal/mol | 7.3 nM | 0.00097 s⁻¹ | 130000 M⁻¹ s⁻¹ | 
B4 |  |  |  |  |  |  |  |  |  |  |  |  |  | 8.2 nM | 0.00119 s⁻¹ | 150000 M⁻¹ s⁻¹ | 
B5 |  |  |  |  |  |  |  |  |  |  |  |  |  |  |  |  | binding result (Chui5 toxin [7]): no binding (tested: 25 nM); binding result (Chui3 toxin [8]): binds; binding result (Chui2 toxin [9]): binds; binding result (Chui4 toxin [10]): binds
